Target: HLA-A*02:01 (Homo sapiens, UniProt P04439, D140Y/D185E/D98H/E176V/E277Q/G131W/G231S/I119V/I121R/I166T/I218V/L300P/L318F/N151K/N90K/P208A/P217A/Q86G/Q94H/R138H/R169H/T345S)
Assay: MHC binding assay (UV-ligand exchange, beta2m ELISA, peptide exchange yield)
Conditions: binding of HLA-class I restricted peptides to HLA-A*02:01, ranged by peptide exchange yield (UV-ligand exchange, β2m ELISA)
From the text: Candidate peptides for T cell based therapies according to the present invention were further tested for their MHC binding capacity (affinity). The individual peptide-MHC complexes were produced by UV-ligand exchange, where a UV-sensitive peptide is cleaved upon UV-irradiation, and exchanged with the peptide of interest as analyzed. Only peptide candidates that can effectively bind and stabilize the peptide-receptive MHC molecules prevent dissociation of the MHC complexes. To determine the yield of the exchange reaction, an ELISA was performed based on the detection of the light chain (β2m) of stabilized MHC complexes. The assay was performed as generally described in Rodenko et al. (Rodenko et al., 2006).
96 well MAXISorp plates (NUNC) were coated over night with 2ug/ml streptavidin in PBS at room temperature, washed 4× and blocked for 1 h at 37° C. in 2% BSA containing blocking buffer. […] Peptide-MHC monomers of the UV-exchange reaction were diluted 100 fold in blocking buffer. Samples were incubated for 1 h at 37° C., washed four times, incubated with 2ug/ml HRP conjugated anti-82m for 1 h at 37° C., washed again and detected with TMB solution that is stopped with […]. Absorption was measured at 450 nm. Candidate peptides that show a high exchange yield (preferably higher than 50%, most preferred higher than 75%) are generally preferred for a generation and production of antibodies or fragments thereof, and/or T cell receptors or fragments thereof, as they show sufficient avidity to the MHC molecules and prevent dissociation of the MHC complexes.

Substance	Peptide exchange
1 (SLMEPPAVLLL; listed as Homo sapiens) [compound 1]	″+++″ (≥50% = +++)
4 (GIMEHITKI; listed as Homo sapiens) [compound 4]	″++++″ (≥75% = ++++)
5 (HLTEVYPEL; listed as Homo sapiens) [compound 5]	″+++″ (≥50% = +++)
6 (VLVSDGVHSV; listed as Homo sapiens) [compound 6]	″+++″ (≥50% = +++)
7 (SLVGLLLYL; listed as Homo sapiens) [compound 7]	″++++″ (≥75% = ++++)
9 (GAAKDLPGV; listed as Homo sapiens) [compound 9]	″++″ (≥20% = ++)
10 (FLATFPLAAV; listed as Homo sapiens) [compound 10]	″++++″ (≥75% = ++++)
12 (SLWPDPMEV; listed as Homo sapiens) [compound 12]	″+++″ (≥50% = +++)
13 (YLMDESLNL; listed as Homo sapiens) [compound 13]	″+++″ (≥50% = +++)
14 (AAYGGLNEKSFV; listed as Homo sapiens) [compound 14]	″+++″ (≥50% = +++)
15 (VLLTFKIFL; listed as Homo sapiens) [compound 15]	″++″ (≥20% = ++)
16 (VLFQGQASL; listed as Homo sapiens) [compound 16]	″+++″ (≥50% = +++)
17 (GLLPGDRLVSV; listed as Homo sapiens) [compound 17]	″+++″ (≥50% = +++)
18 (YLVAKLVEV; listed as Homo sapiens) [compound 18]	″++″ (≥20% = ++)
19 (FMVDNEAIYDI; listed as Homo sapiens) [compound 19]	″++++″ (≥75% = ++++)
20 (RMIEYFIDV; listed as Homo sapiens) [compound 20]	″+++″ (≥50% = +++)
21 (VLDELDMEL; listed as Homo sapiens) [compound 21]	″++″ (≥20% = ++)
22 (IMEENPGIFAV; listed as Homo sapiens) [compound 22]	″+++″ (≥50% = +++)
23 (VLLDDIFAQL; listed as Homo sapiens) [compound 23]	″+++″ (≥50% = +++)
24 (SLSDGLEEV; listed as Homo sapiens) [compound 24]	″++″ (≥20% = ++)
25 (FLPDEPYIKV; listed as Homo sapiens) [compound 25]	″+++″ (≥50% = +++)
26 (ALLELAEEL; listed as Homo sapiens) [compound 26]	″+++″ (≥50% = +++)
27 (ILADIVISA; listed as Homo sapiens) [compound 27]	″+++″ (≥50% = +++)
28 (QLLDETSAITL; listed as Homo sapiens) [compound 28]	″+++″ (≥50% = +++)
29 (KMLGIPISNILMV; listed as Homo sapiens) [compound 29]	″+++″ (≥50% = +++)

Substance	Peptide exchange
30 (LILDWVPYI; listed as Homo sapiens) [compound 30]	″+++″ (≥50% = +++)
31 (YLAPELFVNV; listed as Homo sapiens) [compound 31]	″++″ (≥20% = ++)
32 (KLDDLTQDLTV; listed as Homo sapiens) [compound 32]	″++″ (≥20% = ++)
33 (VLLSLLEKV; listed as Homo sapiens) [compound 33]	″++″ (≥20% = ++)
34 (ILVEADSLWVV; listed as Homo sapiens) [compound 34]	″+++″ (≥50% = +++)
35 (KINDTIYEV; listed as Homo sapiens) [compound 35]	″+++″ (≥50% = +++)
39 (SVAPNLPAV; listed as Homo sapiens) [compound 39]	″+++″ (≥50% = +++)
40 (TLLVKVFSV; listed as Homo sapiens) [compound 40]	″+++″ (≥50% = +++)
41 (SLMPHIPGL; listed as Homo sapiens) [compound 41]	″+++″ (≥50% = +++)
42 (VLLQKIVSA; listed as Homo sapiens) [compound 42]	″+++″ (≥50% = +++)
43 (VLSSLEINI; listed as Homo sapiens) [compound 43]	″++″ (≥20% = ++)
44 (ILDPISSGFLL; listed as Homo sapiens) [compound 44]	″++″ (≥20% = ++)
45 (SLWQDIPDV; listed as Homo sapiens) [compound 45]	″+++″ (≥50% = +++)
46 (ILTEENIHL; listed as Homo sapiens) [compound 46]	″+++″ (≥50% = +++)
47 (ILLSVPLLVV; listed as Homo sapiens) [compound 47]	″++″ (≥20% = ++)
49 (YLPAVFEEV; listed as Homo sapiens) [compound 49]	″+++″ (≥50% = +++)
50 (SLSELEALM; listed as Homo sapiens) [compound 50]	″+++″ (≥50% = +++)
51 (LLPDLEFYV; listed as Homo sapiens) [compound 51]	″++++″ (≥75% = ++++)
52 (FLLAHGLGFLL; listed as Homo sapiens) [compound 52]	″++++″ (≥75% = ++++)
53 (KMIETDILQKV; listed as Homo sapiens) [compound 53]	″++++″ (≥75% = ++++)
54 (SLLEQGKEPWMV; listed as Homo sapiens) [compound 54]	″+++″ (≥50% = +++)
55 (SLLDLETLSL; listed as Homo sapiens) [compound 55]	″++++″ (≥75% = ++++)
57 (TLAELQPPVQL; listed as Homo sapiens) [compound 57]	″+++″ (≥50% = +++)
59 (IMEDIILTL; listed as Homo sapiens) [compound 59]	″+++″ (≥50% = +++)
61 (FLQGYQLHL; listed as Homo sapiens) [compound 61]	″++++″ (≥75% = ++++)

Substance	Peptide exchange
62 (VLLDVSAGQLLM; listed as Homo sapiens) [compound 62]	″++++″ (≥75% = ++++)
63 (YLLPSGGSVTL; listed as Homo sapiens) [compound 63]	″++″ (≥20% = ++)
64 (YAAPGGLIGV; listed as Homo sapiens) [compound 64]	″++″ (≥20% = ++)
66 (FLDENIGGVAV; listed as Homo sapiens) [compound 66]	″+++″ (≥50% = +++)
67 (TLLAEALVTV; listed as Homo sapiens) [compound 67]	″+++″ (≥50% = +++)
68 (SLMELPRGLFL; listed as Homo sapiens) [compound 68]	″++++″ (≥75% = ++++)
69 (FQLDPSSGVLVTV; listed as Homo sapiens) [compound 69]	″+++″ (≥50% = +++)
70 (GLLDYPVGV; listed as Homo sapiens) [compound 70]	″+++″ (≥50% = +++)
71 (GILARIASV; listed as Homo sapiens) [compound 71]	″+++″ (≥50% = +++)
72 (SLLELDGINL; listed as Homo sapiens) [compound 72]	″+++″ (≥50% = +++)
73 (NIFDLQIYV; listed as Homo sapiens) [compound 73]	″+++″ (≥50% = +++)
74 (ALLDPEVLSIFV; listed as Homo sapiens) [compound 74]	″+++″ (≥50% = +++)
75 (GLLEVMVNL; listed as Homo sapiens) [compound 75]	″+++″ (≥50% = +++)
76 (ILIDSIYKV; listed as Homo sapiens) [compound 76]	″+++″ (≥50% = +++)
77 (ILVEADGAWVV; listed as Homo sapiens) [compound 77]	″++++″ (≥75% = ++++)
78 (SLFSSLEPQIQPV; listed as Homo sapiens) [compound 78]	″+++″ (≥50% = +++)
80 (FLYDNLVESL; listed as Homo sapiens) [compound 80]	″++″ (≥20% = ++)
81 (FLFSQLQYL; listed as Homo sapiens) [compound 81]	″++″ (≥20% = ++)
82 (FLSSVTYNL; listed as Homo sapiens) [compound 82]	″+++″ (≥50% = +++)
83 (ILAPTVMMI; listed as Homo sapiens) [compound 83]	″+++″ (≥50% = +++)
84 (VTFGEKLLGV; listed as Homo sapiens) [compound 84]	″++″ (≥20% = ++)
85 (KMSELRVTL; listed as Homo sapiens) [compound 85]	″+++″ (≥50% = +++)
86 (NLIGKIENV; listed as Homo sapiens) [compound 86]	″+++″ (≥50% = +++)
